Drawing on article PMC5095618 (Chemico-biological interactions, 2015), this text covers binding result, Kd and kon for two molecules.

For one experiment, the target named is human albumin (Homo sapiens, UniProt P02768). Nature of the experiment: affinity purification with mass spectrometry.
Experiment [1] addresses T1, Human butyrylcholinesterase (Homo sapiens, UniProt P06276). Description: ELISA.
For experiment [2], the target named is T1, Human butyrylcholinesterase. Nature of the experiment: SPR. On the technique in general: In SPR one partner is held on a chip, and binding of the other changes the refractive index at the surface.
The target is the same in experiment [3]. Nature of the experiment: BLI.

T1 sequence (P06276 29-602): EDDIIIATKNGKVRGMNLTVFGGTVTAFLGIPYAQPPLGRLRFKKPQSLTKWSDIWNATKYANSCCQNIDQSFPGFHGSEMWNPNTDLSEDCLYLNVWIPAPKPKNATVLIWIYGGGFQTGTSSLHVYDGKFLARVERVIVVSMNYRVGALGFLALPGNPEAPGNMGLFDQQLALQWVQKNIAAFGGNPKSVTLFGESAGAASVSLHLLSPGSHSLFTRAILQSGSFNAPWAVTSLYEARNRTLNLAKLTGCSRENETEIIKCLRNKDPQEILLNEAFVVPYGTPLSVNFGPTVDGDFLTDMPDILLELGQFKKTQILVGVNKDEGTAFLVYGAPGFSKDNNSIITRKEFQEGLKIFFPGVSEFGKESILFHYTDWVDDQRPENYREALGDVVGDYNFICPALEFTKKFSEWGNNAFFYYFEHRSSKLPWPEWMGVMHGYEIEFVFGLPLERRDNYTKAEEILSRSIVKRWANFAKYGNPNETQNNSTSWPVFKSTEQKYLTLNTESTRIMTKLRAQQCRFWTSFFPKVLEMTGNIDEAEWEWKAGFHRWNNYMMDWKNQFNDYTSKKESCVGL
Chain of human albumin (P02768 25-609): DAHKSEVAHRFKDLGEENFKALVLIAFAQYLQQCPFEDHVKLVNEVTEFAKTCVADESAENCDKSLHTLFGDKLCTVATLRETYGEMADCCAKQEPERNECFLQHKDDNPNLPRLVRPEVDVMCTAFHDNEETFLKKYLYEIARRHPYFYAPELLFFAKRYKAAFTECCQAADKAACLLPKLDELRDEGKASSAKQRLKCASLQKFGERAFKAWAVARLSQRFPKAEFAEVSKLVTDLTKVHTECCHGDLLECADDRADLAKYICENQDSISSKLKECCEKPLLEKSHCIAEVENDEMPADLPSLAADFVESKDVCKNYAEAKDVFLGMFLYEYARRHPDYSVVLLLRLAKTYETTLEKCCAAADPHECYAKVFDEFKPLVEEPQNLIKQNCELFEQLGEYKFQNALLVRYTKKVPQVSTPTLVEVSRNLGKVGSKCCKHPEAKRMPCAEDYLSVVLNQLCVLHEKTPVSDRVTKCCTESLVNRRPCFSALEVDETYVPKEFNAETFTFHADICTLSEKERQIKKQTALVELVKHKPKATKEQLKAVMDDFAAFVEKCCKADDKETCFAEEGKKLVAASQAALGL

B1: mouse anti-HuBChE monoclonal antibody 11D8 (antibody, V domains shown)
VH: QVQLQQSGAELARPGASVKLSCKASGYTFTSQWLQWVKQRPGQGLEWIGAIYPGDGDTRYTQKFKGKATLTADKSSSTAYMQLTNLAPEDSAVYYCARSSMDYWGQGTSVTVSS
VL: DILLTQSPAILSVSPGERVRLSCRASQSCGTSIYWYQQRTNGSPRLLIMYASEPFSGIPSRFSGSGSGTDFTLSINSVESEDIADYYCQQSNSWPWTFGGGTRLEIK
B1: the binding result with human albumin is “binds”. Further, the dissociation constant Kd – broadly, the concentration at which binding is half-saturated – amounted to 0.26 nM in experiment [1] and 0.9 nM in experiment [2].

B2: mouse anti-HuBChE monoclonal antibody B2 12-1 (antibody, V domains shown)
VH: EVQLQQSGPELVKPGASVKISCKASGYTFTDYSMHWVKLSHGKSLEWIGYIYPYNDDTDYNQKFKTKATLTVDSSSSITYLELRSLTSEDSAVYYCARSDGYSYYFDYWGQGTTLTVSS
VL: DIVMTQSPATLSVTPGDRVSLSCRASQSISDYLHWYQQKSHESPRLLIKYASQSISGIPSRFSGGGSGSDFTLSINSVEPEDVGVYYCQNGHRFPLTFGAGTKLELK
For the molecule B2, the kon (commonly a measure of how fast the partners come together) in experiment [3] was 800000 to 1.2e+06 M⁻¹ s⁻¹. Further, the Kd amounted to 1.41 nM in experiment [1] and 0.14 nM in experiment [2].
